Results on six sequences are retold here after a protein production outcome set (Wang et al. 2014).
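Further: failed if final PepcDB status was selected cloned or expressed and not failed if soluble or beyond.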

The nature of the data set: label from the status in PepcDB records.
Consider “MIGLVPSPIELSYISDISVPKAASAPAYYDLRALNRLTSVKDQGTAGTCWAFASYSSLESYLKPGEDWDFSENNMKNLLSSAYQEGFDRDPNDGGNRIQAAAYLARWSGPVKESDDPYSTFSGVSPADLPIKKHVQDVIFIPDRADPLDNEAIKWAVQNYGAVYTTMHYNNTFYSPEYYSYYFNGTSEPNHAVAIVGWDDSYDRNNFSKVPPGNGAFIMKNSWGPEWGDKGYFYVSYYDSKAGNGSSVFTAENPENYEYIYQYDPFGWVSSMGYSKPLAWVSNVFTAKSDEVLKAVSFYTTDSNCNYEIYIYTDPVSGPINPAGPVLSKNGTCLTAGYHTIPLDSEVRLIAGQKFSVVIKLTNPSYRYLIPLEKPKDSWSSKARANTGESFISSSGSTWTDVNTSYANSNVCIKAFTNSVLLPIANFSSNITEGYAPLSVQFRDLSGHSTDRTWDFENDGNIDSVEANPIHLFSAPGSLEHHHHHH”, for which the protein production entry is listed as “failed”.

As for “MIGMDHLAIGTYEGFLIGYDIDTQPNDPKTTTGCTLRYAYAAHERSIRCIAGSFPILASASVDESIKVYQLDQLQELATLYDLQVPVNSVDIQLQGGLLSGGEDGKLVYYPYGGWSKPKYLKGHKGNVHSVALHPTGQICLSVARDKCLKLWKTNGDCVCSLELPDEAFIVKWTEDGQGWVIATQTSFSVHSLQTGLIQQWEYSTRLVCLCALTNDIFVVGGMDGHLRVGENKPIQVHKVDGGSLVKGIGVGRDGCIYSLSSKGVLEMVAPSRQLEIQNGVVKRYIE”, the protein production result is “failed”.

For “MIGYVLNGEHEEIPYGELMALLEIFNYNGSVERLKRYVITEDSPAKDIVKRSGYIDEGHRIIFRYNLEEKSVDLVDKIVNDFINSFKDFVANIDYPDIDESKSYAVRVLKLHKDEFTKSIDSLRIEKEIGGIIKLKTNAKVNLTKPDILVRVVILENTFFISNVLEMRDREYFQKNRPHLRKYFHPGCMLPKLARAMVNLARVKEGDIVLDPFCGTGGFLIEAGLIGAKLIGCDIDWRMASGTLINLEEYNLLDKVIKVKRLDAKYVKEFLNELNIEKVDAIVTDPPYGISTAKKGEIEKILETLPEVIKDNGYFVFAYPKKIELDMELEGLYKVYIHKGLIRHIHVYKKI”, the protein production result is listed as “failed”.

In the case of “MIHITSQACFLWHTTINKICNRPMFNPLTIRFWGVRGSIPCPGSHTVRYGGNTPCVEIQANGQRIILDGGTGLRVLGEHLMGQQPVTAHLFFTHTHWDHIQGFPFFQPAFVPGNQFHIYAVPGKNGQGIERRLNDQMLHPNFPVPLQIMGGDLRFYDLEVGERVHLGDGVVVSNEALNHPGGGVGYRVSWQGIHVAYITDTEHLPDRLHPGAFALADHADVMIYDATYTDEEYYHPQQSKVGWGHSTWQEAVKLAQAAQVKQLILFHHDPSHDDDCLDRIGELARAQFPQTLLAREGLIISVYPNVIHFPATPQASLEHHHHHH”, the protein production result is recorded as “failed”.

On to “MIIESRIEKGKPVVGMETTVFVHGLPRKEAIELFRRAKEISREKGFQLAVIGILKGKIVAGMSEEELEAMMREGADKVGTREIPIVVAEGKNAATTVSATIFLSRRIGIEVVVTGGTGGVHPGRVDVSQDLTEMSSSRAVLVSSGIKSILDVEATFEMLETLEIPLVGFRTNEFPLFFSRKSGRRVPRIENVEEVLKIYESMKEMELEKTLMVLNPVPEEYEIPHDEIERLLEKIELEVEGKEVTPFLLKKLVEMTNGRTLKANLALLEENVKLAGEIAVKLKRS”, for which the protein production entry is “not failed”.

On to “MIIGIDLGTTNSAVAYIDDSGNPTILPNREGERVTPSVIFFEDGSPVIGSTAKSISVSDPTNTVQFVKRQMGNASYKFPIGGEVFTPEDLSALILKRLKEDAEEAIGAKVTKAVITVPAYFDDAQRKATQDAGRIAGLHVLKVINEPTAAALAYGLANREQKQNVMVYDLGGGTFDVTLIQLNQDEVVVKATGGDRNLGGFDFDNKIFELVEQKFEEEHGLDLYDDLNAVQDLREKAEACKKMLSSRKKSVITLSSQGRTVKVEVTKEKFDELLSPLLSRTALIMKNVLMDAELSWGDIDKIVLVGGSTRVPAVSDLIERTTGIKPSKDVNPDEVVALGAAIQGSLLQVDNEASNNAEEFKPKTRVVDVNSHSLGILIHDNNTGGFINQKMIVRNTPIPASEEAVFYTVNDGQTSLHVQVTEGEDSDPDFVKVIGESNLDLRGSKPQGYPVRFIFTYDENGVVHVYGKDENTGQHLGEMQIERKSNLTEAAIEKKAEKLAGISVE”, for which the protein production entry was “failed”.
